Where a chain is given by its changes, count along the chain named. Names may count otherwise. Like-named read-outs stand apart in the source and are kept apart here.

Data set [1] concerns the molecule itself. Briefly: SEC.
Data set [2] concerns the molecule itself. As to the kind of experiment: SEC. This is another data set of the same source.

B1: wild-type ϕC31 integrase (Int) (enzyme, phage ϕC31, UniProt Q9T221 1-605, looked up)
chain: MDTYAGAYDRQSRERENSSAASPATQRSANEDKAADLQREVERDGGRFRFVGHFSEAPGTSAFGTAERPEFERILNECRAGRLNMIIVYDVSRFSRLKVMDAIPIVSELLALGVTIVSTQEGVFRQGNVMDLIHLIMRLDASHKESSLKSAKILDTKNLQRELGGYVGGKAPYGFELVSETKEITRNGRMVNVVINKLAHSTTPLTGPFEFEPDVIRWWWREIKTHKHLPFKPGSQAAIHPGSITGLCKRMDADAVPTRGETIGKKTASSAWDPATVMRILRDPRIAGFAAEVIYKKKPDGTPTTKIEGYRIQRDPITLRPVELDCGPIIEPAEWYELQAWLDGRGRGKGLSRGQAILSAMDKLYCECGAVMTSKRGEESIKDSYRCRRRKVVDPSAPGQHEGTCNVSMAALDKFVAERIFNKIRHAEGDEETLALLWEAARRFGKLTEAPEKSGERANLVAERADALNALEELYEDRAAGAYDGPVGRKHFRKQQAALTLRQQGAEERLAELEAAEAPKLPLDQWFPEDADADPTGPKSWWGRASVDDKRVFVGLFVDKIVVTKSTTGRGQGTPIEKRASITWAKPPTDDDEDDAQDGTEDVAA
Regarding B1, the binding result in “SEC [1]” is given as “binds”.

B2: hMBP-γ (H1 and H2 of the putative coiled-coil motif of ϕC31 Int fused to histidine-tagged maltose-binding protein) (domain or fragment, phage ϕC31, UniProt Q9T221 445-524, looked up)
chain: GKLTEAPEKSGERANLVAERADALNALEELYEDRAAGAYDGPVGRKHFRKQQAALTLRQQGAEERLAELEAAEAPKLPLD
Regarding B2, in “SEC [2]”, the “stoichiometry N” value amounted to 2.

B3: hMBP-γ^E449K (domain or fragment, phage ϕC31, UniProt Q9T221 445-524, looked up)
chain: B2 chain with E5K
As for B3, the binding result in the data set “SEC [2]” is listed as “binds”.

The values above are taken from PMC2724291 (Nucleic Acids Research, 2009).
